Data set [1] deals with the molecule itself. The data set is described as follows: SEC; 16/60 Sephacryl S-300 in 25 mM Tris-HCl pH 8.0, 100 mM NaCl, 10% glycerol, 1 mM TCEP; no exogenous ligand; tetramer and monomer peaks.
In a further data set the target is T1, His-TEV-PPARγ (234-505) (human, UniProt P37231 234-505).
T1 construct: The methods name no species for the bacterial construct; No tag cleavage is described for this preparation; also called PPARg; source: E. coli, purified (Ni-NTA, size exclusion chromatography)
T1 sequence (looked up): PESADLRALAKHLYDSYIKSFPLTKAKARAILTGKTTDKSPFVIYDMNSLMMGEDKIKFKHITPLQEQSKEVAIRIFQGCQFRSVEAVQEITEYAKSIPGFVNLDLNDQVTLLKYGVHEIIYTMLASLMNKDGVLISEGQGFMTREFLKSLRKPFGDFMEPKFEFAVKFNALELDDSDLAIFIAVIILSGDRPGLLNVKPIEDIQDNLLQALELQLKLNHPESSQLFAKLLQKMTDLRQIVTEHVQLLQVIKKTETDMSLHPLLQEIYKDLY
The data set is described as follows: SEC; analytical, 10/300 Superdex 200; equivalent molar volumes loaded; heterodimer formed by mixing the two proteins at a 1:1 molar ratio; no ligand. The settings on record: both partners purified.

For data set [2], the target named is T2, His-TEV-RXRα-WT (223-462) (Homo sapiens (Human), UniProt P19793).
T2 chain: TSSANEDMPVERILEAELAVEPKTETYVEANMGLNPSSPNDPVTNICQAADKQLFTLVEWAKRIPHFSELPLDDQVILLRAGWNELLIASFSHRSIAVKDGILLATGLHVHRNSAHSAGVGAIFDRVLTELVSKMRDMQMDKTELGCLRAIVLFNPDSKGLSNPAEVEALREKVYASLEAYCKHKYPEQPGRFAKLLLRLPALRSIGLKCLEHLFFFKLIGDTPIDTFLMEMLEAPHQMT
The data set is described as follows: SPR; monomer fraction of RXRα WT used (apo tetramer is inactive).

For data set [3], the target named is T3, His-TEV-RXRα-S427F (223-462) (Homo sapiens (Human), UniProt P19793).
T3 chain: T2 chain with S205F
Description: SPR (also analytical size exclusion chromatography); S427F mutant of RXRα; binding seen without added ligand.

Residue numbers refer to the chain shown, from its start. Numbers in names are those of the source.

This is an account of results in PMC5524640, “Evasion of immunosurveillance by genomic alterations of PPARγ/RXRα in bladder cancer” (Nature Communications, 2017).

B1: His-TEV-RXRα-WT (223-462) (domain or fragment, human, UniProt P19793 223-462, looked up)
chain: T2 chain
B1: in data set [1], the “stoichiometry N” value is 4.

B2: His-TEV-RXRα-S427F (223-462) (domain or fragment, human, UniProt P19793 223-462, looked up)
chain: T2 chain with S205F
notes: S427F is a recurrent mutation found in patients' tumours; No tag cleavage is described for this preparation; also called the mutant; source: E. coli, purified (Ni-NTA, size exclusion chromatography)
For the molecule B2, the binding result with His-TEV-PPARγ (234-505) is “binds”.

B3: His-TEV-PPARγ (234-505) (protein)
chain: T1 sequence (looked up)
As to B3, the binding result in data set [2] and in data set [3] was “binds” in each case.
